Measurements reported in patent US20140087995A1 (published 2014).
Numbered stars: 1 amine (or outer) side, 2 acyl side, 3 side chain; on linkers, the order of the positions; unused ones are H or OH. Bridge positions count the residues as written; N and C are the ends. * marks the point of attachment. C20 diacid = O=C(O)CCCCCCCCCCCCCCCCCCC(=O)*; γGlu = O=C(O)[C@H](CCC(=O)[*:2])N[*:1]

T1: human calcitonin receptor (human, UniProt P30988 25-474)
T1 construct: whole, on cells; also called hCTR; hCT
T1 sequence (looked up): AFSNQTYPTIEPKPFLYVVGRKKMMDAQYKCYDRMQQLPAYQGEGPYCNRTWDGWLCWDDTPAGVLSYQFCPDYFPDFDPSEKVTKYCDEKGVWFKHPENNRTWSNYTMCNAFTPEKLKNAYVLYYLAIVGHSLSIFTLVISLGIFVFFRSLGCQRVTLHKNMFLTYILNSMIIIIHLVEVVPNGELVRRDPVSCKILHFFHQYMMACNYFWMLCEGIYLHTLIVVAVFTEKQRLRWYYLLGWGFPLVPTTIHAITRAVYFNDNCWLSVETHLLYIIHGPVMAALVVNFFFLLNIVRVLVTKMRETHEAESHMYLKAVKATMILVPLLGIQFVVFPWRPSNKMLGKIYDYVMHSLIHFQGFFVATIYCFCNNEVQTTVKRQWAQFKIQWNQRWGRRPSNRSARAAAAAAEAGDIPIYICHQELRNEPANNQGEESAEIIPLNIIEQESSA


Experiments:
[1] = target: T1, human calcitonin receptor; assay: ratio of IC50 at hCTR to IC50 at the human amylin receptor (reference)
Method: The resulting pellet was resuspended, homogenized and centrifuged (20.000 rpm, 15 min) in a buffer containing 20 mM Na-HEPES and 0.1 mM EDTA (pH 7.4, buffer 2). The resulting pellet was resuspended in buffer 2 and protein concentration was measured (BCA protein Assay, Pierce). The homogenate was kept cold during the whole procedure. The membranes were kept at −80° C. until use. The assay was performed in a 384 well Optiplate (PerkinElmer) in a total volume of 40 ul. Membranes were mixed with SPA beads. Final concentration of membranes 35 ng/μL final and SPA beads was 0.05 mg/well. Test-compounds were dissolved in DMSO and further diluted in assay buffer (50 mM Hepes, pH 7.4, 1 mM CaCl2, 5 mM MgCl₂, 0.1% OA and 0.02% Tween20). […] The final mixture was incubated with shaking at 400 rpm for 120 min at 25° C. prior to centrifugation (1500 rpm, 10 min). Samples were analyzed on TopCounter™ (Packard). The IC₅₀ was calculated using (one site binding competition analysis) GraphPad Prism5 as a measure of receptor affinity.
Membranes were prepared in the following way; the cells were rinsed with PBS and incubated with Versene for approximately 5 min before harvesting. The cells were flushed with PBS and the cell-suspension was centrifuged for 5 min at 1000 rpm. Cells were homogenized (Ultrathurrax) in a buffer containing 20 mM Na-HEPES and 10 mM EDTA (pH 7.4) and centrifuged at 20.000 rpm for 15 min. The resulting pellet was resuspended, homogenized and centrifuged (20.000 rpm, 15 min) in a buffer containing 20 mM Na-HEPES and 0.1 mM EDTA (pH 7.4, buffer 2). The resulting pellet was resuspended in buffer 2 and protein concentration was measured (BCA protein Assay, Pierce). The homogenate was kept cold during the whole procedure. The membranes were kept at −80° C. until use. Assay was performed in a 384 well Optiplate (PerkinElmer) in a total volume of 40 ul. Membranes were mixed with SPA beads.

[2] = target: T1, human calcitonin receptor; assay: SPA competition binding, membranes with human calcitonin receptor, displacement of 125I-calcitonin (Assay VII)
Method: Membranes were prepared in the following way; the cells were rinsed with PBS and incubated with Versene for approximately 5 min before harvesting. The cells were flushed with PBS and the cell-suspension was centrifuged for 5 min at 1000 rpm. Cells were homogenized (Ultrathurrax) in a buffer containing 20 mM Na-HEPES and 10 mM EDTA (pH 7.4) and centrifuged at 20.000 rpm for 15 min. The resulting pellet was resuspended, homogenized and centrifuged (20.000 rpm, 15 min) in a buffer containing 20 mM Na-HEPES and 0.1 mM EDTA (pH 7.4, buffer 2). The resulting pellet was resuspended in buffer 2 and protein concentration was measured (BCA protein Assay, Pierce). The homogenate was kept cold during the whole procedure. The membranes were kept at −80° C. until use. Assay was performed in a 384 well Optiplate (PerkinElmer) in a total volume of 40 ul. Membranes were mixed with SPA beads. Final concentration of membranes 35 ng/μL final and Final concentration of SPA beads was 0.05 mg/well. Test-compounds were dissolved in DMSO and further diluted in assay buffer (50 mM Hepes, pH 7.4, 1 mM CaCl2, 5 mM MgCl₂, 0.1% OA and 0.02% Tween20). […] The final mixture was incubated for 120 min with shaking at 400 rpm at 25° C. prior to centrifugation (1500 rpm, 10 min). Samples were analyzed on TopCounter™ (Packard). The […] was calculated using (one site binding competition analysis) GraphPad Prism5 as a measure of receptor affinity.

Ratio hCT/hAmylin binding [1]	IC50 [2]	Binder
16.5	11.1 nM	{C20 diacid-γGlu}-KCNTATCATQRLAEFLRHSSPNFGAPLSSTNVGSNTY-NH2 (disulfide 2-7; SMILES CC(C)C[C@H](NC(=O)[C@H](CCCNC(=N)N)NC(=O)[C@H](CCC(N)=O)NC(=O)[C@@H](NC(=O)[C@H](C)NC(=O)[C@@H]1CSSC[C@H](NC(=O)[C@H](CCCCN)NC(=O)CC[C@H](NC(=O)CCCCCCCCCCCCCCCCCCC(=O)O)C(=O)O)C(=O)N[C@@H](CC(N)=O)C(=O)N[C@@H]([C@@H](C)O)C(=O)N[C@@H](C)C(=O)N[C@@H]([C@@H](C)O)C(=O)N1)[C@@H](C)O)C(=O)N[C@@H](C)C(=O)N[C@@H](CCC(=O)O)C(=O)N[C@@H](Cc1ccccc1)C(=O)N[C@@H](CC(C)C)C(=O)N[C@@H](CCCNC(=N)N)C(=O)N[C@@H](Cc1c[nH]cn1)C(=O)N[C@@H](CO)C(=O)N[C@@H](CO)C(=O)N1CCC[C@H]1C(=O)N[C@@H](CC(N)=O)C(=O)N[C@@H](Cc1ccccc1)C(=O)NCC(=O)N[C@@H](C)C(=O)N1CCC[C@H]1C(=O)N[C@@H](CC(C)C)C(=O)N[C@@H](CO)C(=O)N[C@@H](CO)C(=O)N[C@H](C(=O)N[C@@H](CC(N)=O)C(=O)N[C@H](C(=O)NCC(=O)N[C@@H](CO)C(=O)N[C@@H](CC(N)=O)C(=O)N[C@H](C(=O)N[C@@H](Cc1ccc(O)cc1)C(N)=O)[C@@H](C)O)C(C)C)[C@@H](C)O, also called compound 7) [N^α1-[(4S)-4-carboxy-4-(19-carboxynonadecanoylamino)butanoyl]-[Glu14,Arg17,Pro21,Pro26]-h-amylin]
9.2	5.09 nM	{C20 diacid-γGlu}-KCNTATCATQRLAEFLRHSSPNFGAIPSSTNVGSHTY-NH2 (disulfide 2-7; SMILES CC[C@H](C)[C@H](NC(=O)[C@H](C)NC(=O)CNC(=O)[C@H](Cc1ccccc1)NC(=O)[C@H](CC(N)=O)NC(=O)[C@@H]1CCCN1C(=O)[C@H](CO)NC(=O)[C@H](CO)NC(=O)[C@H](Cc1c[nH]cn1)NC(=O)[C@H](CCCNC(=N)N)NC(=O)[C@H](CC(C)C)NC(=O)[C@H](Cc1ccccc1)NC(=O)[C@H](CCC(=O)O)NC(=O)[C@H](C)NC(=O)[C@H](CC(C)C)NC(=O)[C@H](CCCNC(=N)N)NC(=O)[C@H](CCC(N)=O)NC(=O)[C@@H](NC(=O)[C@H](C)NC(=O)[C@@H]1CSSC[C@H](NC(=O)[C@H](CCCCN)NC(=O)CC[C@H](NC(=O)CCCCCCCCCCCCCCCCCCC(=O)O)C(=O)O)C(=O)N[C@@H](CC(N)=O)C(=O)N[C@@H]([C@@H](C)O)C(=O)N[C@@H](C)C(=O)N[C@@H]([C@@H](C)O)C(=O)N1)[C@@H](C)O)C(=O)N1CCC[C@H]1C(=O)N[C@@H](CO)C(=O)N[C@@H](CO)C(=O)N[C@H](C(=O)N[C@@H](CC(N)=O)C(=O)N[C@H](C(=O)NCC(=O)N[C@@H](CO)C(=O)N[C@@H](Cc1c[nH]cn1)C(=O)N[C@H](C(=O)N[C@@H](Cc1ccc(O)cc1)C(N)=O)[C@@H](C)O)C(C)C)[C@@H](C)O, also called compound 18)
2.3	2.18 nM	{C20 diacid-γGlu}-KCNTATCATQRLAEFLRHSSPNFGAIPSPTNVGSNTY-NH2 (disulfide 2-7; SMILES CC[C@H](C)[C@H](NC(=O)[C@H](C)NC(=O)CNC(=O)[C@H](Cc1ccccc1)NC(=O)[C@H](CC(N)=O)NC(=O)[C@@H]1CCCN1C(=O)[C@H](CO)NC(=O)[C@H](CO)NC(=O)[C@H](Cc1c[nH]cn1)NC(=O)[C@H](CCCNC(=N)N)NC(=O)[C@H](CC(C)C)NC(=O)[C@H](Cc1ccccc1)NC(=O)[C@H](CCC(=O)O)NC(=O)[C@H](C)NC(=O)[C@H](CC(C)C)NC(=O)[C@H](CCCNC(=N)N)NC(=O)[C@H](CCC(N)=O)NC(=O)[C@@H](NC(=O)[C@H](C)NC(=O)[C@@H]1CSSC[C@H](NC(=O)[C@H](CCCCN)NC(=O)CC[C@H](NC(=O)CCCCCCCCCCCCCCCCCCC(=O)O)C(=O)O)C(=O)N[C@@H](CC(N)=O)C(=O)N[C@@H]([C@@H](C)O)C(=O)N[C@@H](C)C(=O)N[C@@H]([C@@H](C)O)C(=O)N1)[C@@H](C)O)C(=O)N1CCC[C@H]1C(=O)N[C@@H](CO)C(=O)N1CCC[C@H]1C(=O)N[C@H](C(=O)N[C@@H](CC(N)=O)C(=O)N[C@H](C(=O)NCC(=O)N[C@@H](CO)C(=O)N[C@@H](CC(N)=O)C(=O)N[C@H](C(=O)N[C@@H](Cc1ccc(O)cc1)C(N)=O)[C@@H](C)O)C(C)C)[C@@H](C)O, also called compound 37)
1	0.101 nM	{C20 diacid-γGlu}-KCNTATCATQRLAEFLRHSSPNFGAIPSSTNVGSDTP-NH2 (disulfide 2-7; SMILES CC[C@H](C)[C@H](NC(=O)[C@H](C)NC(=O)CNC(=O)[C@H](Cc1ccccc1)NC(=O)[C@H](CC(N)=O)NC(=O)[C@@H]1CCCN1C(=O)[C@H](CO)NC(=O)[C@H](CO)NC(=O)[C@H](Cc1c[nH]cn1)NC(=O)[C@H](CCCNC(=N)N)NC(=O)[C@H](CC(C)C)NC(=O)[C@H](Cc1ccccc1)NC(=O)[C@H](CCC(=O)O)NC(=O)[C@H](C)NC(=O)[C@H](CC(C)C)NC(=O)[C@H](CCCNC(=N)N)NC(=O)[C@H](CCC(N)=O)NC(=O)[C@@H](NC(=O)[C@H](C)NC(=O)[C@@H]1CSSC[C@H](NC(=O)[C@H](CCCCN)NC(=O)CC[C@H](NC(=O)CCCCCCCCCCCCCCCCCCC(=O)O)C(=O)O)C(=O)N[C@@H](CC(N)=O)C(=O)N[C@@H]([C@@H](C)O)C(=O)N[C@@H](C)C(=O)N[C@@H]([C@@H](C)O)C(=O)N1)[C@@H](C)O)C(=O)N1CCC[C@H]1C(=O)N[C@@H](CO)C(=O)N[C@@H](CO)C(=O)N[C@H](C(=O)N[C@@H](CC(N)=O)C(=O)N[C@H](C(=O)NCC(=O)N[C@@H](CO)C(=O)N[C@@H](CC(=O)O)C(=O)N[C@H](C(=O)N1CCC[C@H]1C(N)=O)[C@@H](C)O)C(C)C)[C@@H](C)O, also called compound 11)
19.1	17.1 nM	{C20 diacid-γGlu}-KCNTATCATQRLAEFLRHSSPNFGAIPSSTNVGSRTY-NH2 (disulfide 2-7; SMILES CC[C@H](C)[C@H](NC(=O)[C@H](C)NC(=O)CNC(=O)[C@H](Cc1ccccc1)NC(=O)[C@H](CC(N)=O)NC(=O)[C@@H]1CCCN1C(=O)[C@H](CO)NC(=O)[C@H](CO)NC(=O)[C@H](Cc1c[nH]cn1)NC(=O)[C@H](CCCNC(=N)N)NC(=O)[C@H](CC(C)C)NC(=O)[C@H](Cc1ccccc1)NC(=O)[C@H](CCC(=O)O)NC(=O)[C@H](C)NC(=O)[C@H](CC(C)C)NC(=O)[C@H](CCCNC(=N)N)NC(=O)[C@H](CCC(N)=O)NC(=O)[C@@H](NC(=O)[C@H](C)NC(=O)[C@@H]1CSSC[C@H](NC(=O)[C@H](CCCCN)NC(=O)CC[C@H](NC(=O)CCCCCCCCCCCCCCCCCCC(=O)O)C(=O)O)C(=O)N[C@@H](CC(N)=O)C(=O)N[C@@H]([C@@H](C)O)C(=O)N[C@@H](C)C(=O)N[C@@H]([C@@H](C)O)C(=O)N1)[C@@H](C)O)C(=O)N1CCC[C@H]1C(=O)N[C@@H](CO)C(=O)N[C@@H](CO)C(=O)N[C@H](C(=O)N[C@@H](CC(N)=O)C(=O)N[C@H](C(=O)NCC(=O)N[C@@H](CO)C(=O)N[C@@H](CCCNC(=N)N)C(=O)N[C@H](C(=O)N[C@@H](Cc1ccc(O)cc1)C(N)=O)[C@@H](C)O)C(C)C)[C@@H](C)O, also called compound 16)
